Experimental data: US20240270857A1 (CHIA TAI TIANQING PHARMACEUTICAL GROUP, published 2024)

T1: IL-36R naturally expressed on OVCAR8 cells and on normal human epidermal keratinocytes (NHK cells) (human, UniProt Q9HB29 20-575)
T1 sequence (looked up): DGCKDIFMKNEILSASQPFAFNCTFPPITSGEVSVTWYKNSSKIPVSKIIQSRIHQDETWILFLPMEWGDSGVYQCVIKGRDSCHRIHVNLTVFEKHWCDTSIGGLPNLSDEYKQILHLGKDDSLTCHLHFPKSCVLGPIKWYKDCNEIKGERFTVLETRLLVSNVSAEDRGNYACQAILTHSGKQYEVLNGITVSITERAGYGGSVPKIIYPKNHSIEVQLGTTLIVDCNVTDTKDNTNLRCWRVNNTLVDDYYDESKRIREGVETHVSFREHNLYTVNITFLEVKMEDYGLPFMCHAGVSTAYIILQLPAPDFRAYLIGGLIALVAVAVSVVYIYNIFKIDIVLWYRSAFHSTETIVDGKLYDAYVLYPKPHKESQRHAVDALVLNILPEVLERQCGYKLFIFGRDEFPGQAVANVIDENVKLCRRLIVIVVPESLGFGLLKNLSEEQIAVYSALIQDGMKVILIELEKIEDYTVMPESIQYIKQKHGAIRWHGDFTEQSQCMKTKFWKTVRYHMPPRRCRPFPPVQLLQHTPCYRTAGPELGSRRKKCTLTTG

B1: hz84C4-1.1 (antibody, human IgG4 S228P, kappa, V domains shown)
VH: QVQLVQSGAEVKKPGASVKVSCKASGYFFTSYWMNWVRQAPGQGLEWMGMIHPYDSETRYAQKFQGRVTMTVDKSTSTVYMELSSLRSEDTAVYYCASSTTAFAYWGQGTLVTVSS
VL: DIQMTQSPSSLSASVGDRVTITCRASQDIGNALNWYQQKPGKAPKRLIYATSSLDPGVPSRFSGSRSGTDFTLTISSLQPEDFATYYCLQYASSPYTFGQGTKVEIKR
notes: Humanized, human IgG4 / kappa
B2: hz84C4-1.3 (antibody, human IgG4 S228P, kappa, V domains shown)
VH: QVQLVQSGAEVKKPGASVKVSCKASGYFFTSYWMNWVRQAPGQGLEWMGMIYPYDSETRYAQKFQGRVTMTVDKSTSTVYMELSSLRSEDTAVYYCASSTTAFAYWGQGTLVTVSS
VL: DIQMTQSPSSLSASVGDRVTITCRASQDIGNALNWYQQKPGKAPKRLIYATSSLDPGVPSRFSGSRSGTDFTLTISSLQPEDFATYYCLQYASSPYTFGQGTKVEIKR
notes: Humanized, human IgG4 / kappa
B3: hz84C4-1.2 (antibody, human IgG4 S228P, kappa, V domains shown)
VH: QVQLVQSGAEVKKPGASVKVSCKASGYFFTSYWMNWVRQAPGQGLEWMGYIHPYDSETRYAQKFQGRVTMTVDKSTSTVYMELSSLRSEDTAVYYCASSTTAFAYWGQGTLVTVSS
VL: DIQMTQSPSSLSASVGDRVTITCRASQDIGNALNWYQQKPGKAPKRLIYATSSLDPGVPSRFSGSRSGTDFTLTISSLQPEDFATYYCLQYASSPYTFGQGTKVEIKR
notes: Humanized, human IgG4 / kappa
B4: hz84C4-1.4 (antibody, human IgG4 S228P, kappa, V domains shown)
VH: QVQLVQSGAEVKKPGASVKVSCKASGYYFTSYWMNWVRQAPGQGLEWMGMIHPYDSETRLAQKFKGRVTMTVDKSTSTVYMELSSLRSEDTAVYYCASSTTAFAYWGQGTLVTVSS
VL: DIQMTQSPSSLSASVGDRVTITCRASQDIGNALNWYQQKPGKAPKRLIYATSSLDPGVPSRFSGSRSGTDFTLTISSLQPEDFATYYCLQYASSPYTFGQGTKVEIKR
notes: Humanized, human IgG4 / kappa

These binders were tested against T1, IL-36R naturally expressed on OVCAR8 … (assay: cell-based or functional assay).
B1 was tested, and the “IC50 (M); hIL36α; IL-8 production” value was 6.38e-12 M, the “IC50 (M); hIL36αβγ; IL-8 production” value was 6.51e-12 M and the “IC50 (M); hIL36β; IL-8 production” value was 7.61e-12 M. For the same binder, the “IC50 (M); hIL36γ; IL-8 production” value was 4.77e-12 M, the “Maximum inhibition rate %; hIL36α; IL-8 production” value was 99.7% and the “Maximum inhibition rate %; hIL36αβγ; IL-8 production” value (“Maximum inhibition rate %; hIL36αβγ” below) was 99.9%. The “Maximum inhibition rate %; hIL36β; IL-8 production” value (shortened to “Maximum inhibition rate %; hIL36β”) was 99.3% and the “Maximum inhibition rate %; hIL36γ; IL-8 production” value (shortened to “Maximum inhibition rate %; hIL36γ”) was 99.6%.
In the case of B2, the “IC50 (M); hIL36αβγ; IL-8 production” value is reported as 5.33e-12 M, the “IC50 (M); hIL36γ; IL-8 production” value is reported as roughly 6.46e-12 M and the “Maximum inhibition rate %; hIL36α; IL-8 production” value is reported as 20.6%. The “Maximum inhibition rate %; hIL36αβγ” value was 44.2%, the “Maximum inhibition rate %; hIL36β” value was 21.8% and the “Maximum inhibition rate %; hIL36γ” value was 59.5%.
With B3 the “IC50 (M); hIL36α; IL-8 production” value was 8.5e-12 M, the “IC50 (M); hIL36αβγ; IL-8 production” value was 7.75e-12 M and the “IC50 (M); hIL36β; IL-8 production” value was 1.6e-12 M. The “IC50 (M); hIL36γ; IL-8 production” value was 8.99e-12 M, the “Maximum inhibition rate %; hIL36α; IL-8 production” value was 99.1% and the “Maximum inhibition rate %; hIL36αβγ” value was 99.2%. For the same binder, the “Maximum inhibition rate %; hIL36β” value was 98.9% and the “Maximum inhibition rate %; hIL36γ” value was 99.5%.
For B4, the “IC50 (M); hIL36α; IL-8 production” value was 1.42e-11 M, the “IC50 (M); hIL36αβγ; IL-8 production” value was 1.12e-11 M and the “IC50 (M); hIL36β; IL-8 production” value was 1.46e-11 M. The “IC50 (M); hIL36γ; IL-8 production” value was 7.75e-12 M, the “Maximum inhibition rate %; hIL36α; IL-8 production” value was 99.5% and the “Maximum inhibition rate %; hIL36αβγ” value was 98.9%. For the same binder, the “Maximum inhibition rate %; hIL36β” value was 98.5% and the “Maximum inhibition rate %; hIL36γ” value was 99.4%.
